Measurements published in PMC4570671, “A Novel Aldo-Keto Reductase (AKR17A1) of Anabaena sp. PCC 7120 Degrades the Rice Field Herbicide Butachlor and Confers Tolerance to Abiotic Stresses in E. coli” (PLoS ONE, 2015).

How the values were obtained:
Assay in all cases: purified protein
Conditions in all cases: 0.12 mM NADPH, 50 mM potassium phosphate pH 7.4, 10 mM 2-mercaptoethanol, 37°C
CC(=O)C=O = test system: CC(=O)C=O
[1] = test system: CCCCOCN(C(=O)CCl)c1c(CC)cccc1CC
CCOC(=O)C(C)=O = test system: CCOC(=O)C(C)=O
O=C1Nc2ccccc2C1=O = test system: O=C1Nc2ccccc2C1=O
O=Cc1ccccc1[N+](=O)[O-] = test system: O=Cc1ccccc1[N+](=O)[O-]
O=Cc1ccccc1 = test system: O=Cc1ccccc1

In the case of “AKR17A1 (All2316) (Nostoc sp. PCC 7120 = FACHB-418)”, the Km (CC(=O)C=O) was 4.164 (0.973) mM, the kcat (CC(=O)C=O) was 1.6 s⁻¹ and the kcat/Km (CC(=O)C=O) was 383 M⁻¹ s⁻¹. For the same substance, the Km [1] was 0.548 (0.190) mM, the kcat [1] was 2.11 s⁻¹ and the kcat/Km [1] was 3840 M⁻¹ s⁻¹. The Km (CCOC(=O)C(C)=O) was 6.213 (2.214) mM, the kcat (CCOC(=O)C(C)=O) was 1.43 s⁻¹ and the kcat/Km (CCOC(=O)C(C)=O) was 228 M⁻¹ s⁻¹. The Km (O=C1Nc2ccccc2C1=O) was 0.011 (0.005) mM, the kcat (O=C1Nc2ccccc2C1=O) was 1.58 s⁻¹ and the kcat/Km (O=C1Nc2ccccc2C1=O) was 136000 M⁻¹ s⁻¹. For the same substance, the Km (O=Cc1ccccc1[N+](=O)[O-]) was 0.014 (0.002) mM, the kcat (O=Cc1ccccc1[N+](=O)[O-]) was 1.59 s⁻¹ and the kcat/Km (O=Cc1ccccc1[N+](=O)[O-]) was 114000 M⁻¹ s⁻¹. The Km (O=Cc1ccccc1) was 3.740 (1.098) mM, the kcat (O=Cc1ccccc1) was 1.51 s⁻¹ and the kcat/Km (O=Cc1ccccc1) was 404 M⁻¹ s⁻¹.
